Key:
[1] = target: N-terminal domain of clathrin (CLTC NTD) (human) (UniProt Q00610)
[2] = target: V domain of programmed cell death 6-interacting protein (ALIX V) (human) (UniProt Q8WUM4)
[3] = target: E3 ubiquitin-protein ligase NEDD4 WW2 domain (human)
[4] = target: E3 ubiquitin-protein ligase NEDD4 WW4 domain (human)
Sequence of E3 ubiquitin-protein ligase NEDD4 WW4 domain (human) (P46934 whole entry, the tested form may be a part): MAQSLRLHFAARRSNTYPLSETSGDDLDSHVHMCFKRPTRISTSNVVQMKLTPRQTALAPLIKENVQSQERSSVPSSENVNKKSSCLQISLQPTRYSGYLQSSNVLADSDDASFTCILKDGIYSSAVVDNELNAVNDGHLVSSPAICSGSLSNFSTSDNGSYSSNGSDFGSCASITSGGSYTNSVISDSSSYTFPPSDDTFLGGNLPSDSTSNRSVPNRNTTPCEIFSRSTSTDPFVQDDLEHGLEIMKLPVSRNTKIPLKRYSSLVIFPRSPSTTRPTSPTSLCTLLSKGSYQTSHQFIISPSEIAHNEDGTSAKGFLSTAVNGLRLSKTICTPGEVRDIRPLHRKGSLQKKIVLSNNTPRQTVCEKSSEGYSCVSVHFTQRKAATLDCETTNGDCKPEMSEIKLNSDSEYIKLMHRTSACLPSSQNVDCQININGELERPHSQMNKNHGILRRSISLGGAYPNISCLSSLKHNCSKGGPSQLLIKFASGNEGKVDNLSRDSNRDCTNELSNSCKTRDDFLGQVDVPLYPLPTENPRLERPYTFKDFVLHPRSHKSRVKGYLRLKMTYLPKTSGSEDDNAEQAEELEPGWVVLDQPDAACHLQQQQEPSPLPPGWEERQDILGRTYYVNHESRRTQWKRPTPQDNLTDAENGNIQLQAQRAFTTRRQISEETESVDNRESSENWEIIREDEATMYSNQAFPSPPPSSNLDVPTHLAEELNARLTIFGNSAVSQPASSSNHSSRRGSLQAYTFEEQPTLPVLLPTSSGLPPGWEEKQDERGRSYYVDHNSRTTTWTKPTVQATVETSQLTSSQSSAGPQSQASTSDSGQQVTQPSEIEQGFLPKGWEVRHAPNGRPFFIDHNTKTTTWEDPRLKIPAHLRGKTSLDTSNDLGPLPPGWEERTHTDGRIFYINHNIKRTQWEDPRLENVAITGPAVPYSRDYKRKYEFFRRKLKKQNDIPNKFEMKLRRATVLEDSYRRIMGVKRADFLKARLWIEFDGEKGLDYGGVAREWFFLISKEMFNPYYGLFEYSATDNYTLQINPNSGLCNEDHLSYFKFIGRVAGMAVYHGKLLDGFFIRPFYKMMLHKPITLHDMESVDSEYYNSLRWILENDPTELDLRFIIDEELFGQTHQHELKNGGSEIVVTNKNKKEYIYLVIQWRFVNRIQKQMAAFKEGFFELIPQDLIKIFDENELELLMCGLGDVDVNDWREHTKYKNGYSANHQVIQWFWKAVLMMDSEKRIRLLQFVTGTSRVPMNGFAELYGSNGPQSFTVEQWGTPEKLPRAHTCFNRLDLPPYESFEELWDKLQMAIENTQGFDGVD

Sequence of V domain of programmed cell death 6-interacting protein (ALIX V) (human) (Q8WUM4 whole entry, the tested form may be a part): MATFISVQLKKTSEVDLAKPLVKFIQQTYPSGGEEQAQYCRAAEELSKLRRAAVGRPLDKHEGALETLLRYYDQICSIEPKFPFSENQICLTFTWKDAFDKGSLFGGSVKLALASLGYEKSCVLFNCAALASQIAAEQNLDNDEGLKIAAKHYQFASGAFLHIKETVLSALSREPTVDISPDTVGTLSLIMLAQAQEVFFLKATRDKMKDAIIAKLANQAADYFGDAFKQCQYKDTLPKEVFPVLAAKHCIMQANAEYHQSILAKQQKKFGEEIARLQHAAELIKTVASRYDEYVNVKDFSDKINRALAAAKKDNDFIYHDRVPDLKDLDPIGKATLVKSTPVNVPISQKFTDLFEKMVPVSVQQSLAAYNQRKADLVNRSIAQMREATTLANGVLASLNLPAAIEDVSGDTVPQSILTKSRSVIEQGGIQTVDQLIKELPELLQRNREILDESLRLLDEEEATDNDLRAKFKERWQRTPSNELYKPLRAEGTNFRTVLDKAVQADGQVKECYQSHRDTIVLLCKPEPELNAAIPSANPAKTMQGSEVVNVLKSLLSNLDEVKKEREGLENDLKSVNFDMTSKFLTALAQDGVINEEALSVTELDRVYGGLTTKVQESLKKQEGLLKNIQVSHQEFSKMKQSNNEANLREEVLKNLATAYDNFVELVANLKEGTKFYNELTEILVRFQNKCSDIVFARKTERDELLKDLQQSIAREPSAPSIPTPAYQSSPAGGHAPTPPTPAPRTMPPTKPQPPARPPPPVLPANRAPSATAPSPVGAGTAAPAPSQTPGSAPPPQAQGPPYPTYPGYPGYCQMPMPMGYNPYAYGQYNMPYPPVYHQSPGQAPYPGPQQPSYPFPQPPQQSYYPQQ
Sequence of E3 ubiquitin-protein ligase NEDD4 WW2 domain (human) (P46934 whole entry, the tested form may be a part): as the sequence (P46934 whole entry, the tested form may be a part) above
Sequence of N-terminal domain of clathrin (CLTC NTD) (human) (Q00610 whole entry, the tested form may be a part): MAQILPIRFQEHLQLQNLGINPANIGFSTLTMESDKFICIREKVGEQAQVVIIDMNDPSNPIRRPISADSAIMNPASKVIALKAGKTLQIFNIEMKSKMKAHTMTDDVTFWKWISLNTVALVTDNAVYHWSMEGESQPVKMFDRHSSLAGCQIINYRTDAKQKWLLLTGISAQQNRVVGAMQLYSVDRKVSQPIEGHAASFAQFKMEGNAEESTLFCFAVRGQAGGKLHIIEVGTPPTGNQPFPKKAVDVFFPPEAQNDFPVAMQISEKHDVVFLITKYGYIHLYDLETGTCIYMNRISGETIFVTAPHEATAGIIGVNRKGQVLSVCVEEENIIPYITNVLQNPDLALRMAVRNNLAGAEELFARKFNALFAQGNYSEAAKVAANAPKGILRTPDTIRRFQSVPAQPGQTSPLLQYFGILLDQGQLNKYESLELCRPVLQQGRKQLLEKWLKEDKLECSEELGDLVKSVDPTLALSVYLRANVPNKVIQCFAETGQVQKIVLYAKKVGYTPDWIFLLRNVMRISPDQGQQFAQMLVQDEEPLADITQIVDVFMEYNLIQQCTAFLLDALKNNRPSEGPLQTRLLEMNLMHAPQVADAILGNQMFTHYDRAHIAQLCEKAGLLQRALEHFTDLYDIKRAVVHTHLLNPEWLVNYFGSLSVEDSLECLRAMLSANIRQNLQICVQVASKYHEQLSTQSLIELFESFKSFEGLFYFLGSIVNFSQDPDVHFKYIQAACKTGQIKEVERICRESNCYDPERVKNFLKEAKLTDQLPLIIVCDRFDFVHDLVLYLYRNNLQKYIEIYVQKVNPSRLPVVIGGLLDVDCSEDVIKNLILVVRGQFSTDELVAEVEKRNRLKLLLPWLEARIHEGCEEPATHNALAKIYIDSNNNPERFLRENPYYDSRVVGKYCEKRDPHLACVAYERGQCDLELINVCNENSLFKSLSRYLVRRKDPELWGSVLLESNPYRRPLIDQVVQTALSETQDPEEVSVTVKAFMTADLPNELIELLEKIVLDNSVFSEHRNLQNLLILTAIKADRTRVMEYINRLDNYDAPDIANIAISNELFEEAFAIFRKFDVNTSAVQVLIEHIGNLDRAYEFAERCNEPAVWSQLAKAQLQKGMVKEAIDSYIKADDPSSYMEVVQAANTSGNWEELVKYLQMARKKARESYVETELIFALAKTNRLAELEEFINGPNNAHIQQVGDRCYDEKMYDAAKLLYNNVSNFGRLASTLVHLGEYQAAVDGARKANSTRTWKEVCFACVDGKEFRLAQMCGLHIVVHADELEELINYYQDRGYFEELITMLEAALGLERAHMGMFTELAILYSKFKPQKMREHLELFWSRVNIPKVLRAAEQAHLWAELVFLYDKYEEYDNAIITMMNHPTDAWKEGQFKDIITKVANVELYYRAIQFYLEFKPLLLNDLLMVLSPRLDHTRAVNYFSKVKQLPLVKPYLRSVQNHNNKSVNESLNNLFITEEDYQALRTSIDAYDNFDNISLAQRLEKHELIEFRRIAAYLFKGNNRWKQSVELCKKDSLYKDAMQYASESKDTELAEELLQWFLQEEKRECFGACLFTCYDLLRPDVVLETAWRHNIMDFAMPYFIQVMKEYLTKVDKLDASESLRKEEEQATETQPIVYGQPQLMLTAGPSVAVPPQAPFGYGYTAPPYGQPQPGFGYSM

| Binder | Kd [1] | Kd [2] | Kd [3] | Kd [4] |
| --- | --- | --- | --- | --- |
| GDLLGDLLNLDLGPPVY [AP1B1 626-641 (Human)] | 300 µM |  |  |  |
| MSSLYPSLEDLKVDQA [SDCBP2 1-16 (Human)] |  | 0.29 µM |  |  |
| EPDQEPPPPYQEQVPVPVYHPTPSQ [RNF11 31-65 (Human)] |  |  | 15 µM | 35 µM |
| VPVDTNLIEFDTNYAT [ARRB2 367-382 (Human)] | 40 µM |  |  |  |
| PPPVLYPNLAELENYM [SDCBP2 39-54 (Human)] |  | 2.1 µM |  |  |
| EPDQEPPPPYQEQVPV [RNF11 31-56 (Human)] |  |  | 13 µM | 44 µM |

— paper PMC10132805
